Values of other authors in article PMC9249222.

Legend:
[1] = molecular target: UBR5 HECT PAM2L (Homo sapiens) (UniProt O95071)
PAIP PAM2 (Homo sapiens) = PAIP PAM2 (Homo sapiens) (UniProt Q9H074)
Chain of PAIP PAM2 (Homo sapiens) (Q9H074 116-143): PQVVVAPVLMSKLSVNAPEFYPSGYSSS

Chain of UBR5 MLLE (O95071 2377-2454): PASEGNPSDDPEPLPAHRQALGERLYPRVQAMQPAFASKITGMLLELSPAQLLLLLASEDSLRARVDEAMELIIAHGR

Kd [1]: 50 µM | Kd (PAIP PAM2 (Homo sapiens)): 3.4 µM
Substance: UBR5 MLLE (from UniProt O95071)
